Source: patent US8987192B2, “Potent and selective mediators of cholesterol efflux” (The Regents of the University of California, priority 2006, dated 2015)
“Also recorded” adds a separate entry of the source. Where no end group is shown, it is not given here. [ ]: non-standard residue; d: D form.

Target: ABCA1 (Mus musculus, UniProt P41233)
Experiment: Cholesterol efflux from [3H]cholesterol-labeled ABCA1-expressing J774 mouse macrophages
Assay type: cell-based
Parameters: to upregulate cellular ABCA1 protein; endogenous in cells; host or cells: J774 mouse macrophages
Details: for capacity to stimulate cholesterol efflux at 3 μg/ml: 3 μg/ml lipid-free peptide, ABCA1-expressing macrophages; for ABCA1-dependent cholesterol efflux: macrophages with vs without cAMP; for cholesterol efflux from macrophages not induced for ABCA1 (non-specific): no cAMP
Description: In some embodiments, a polypeptide known to mediate cholesterol efflux (e.g., helix 9/10 of Apo A-I) is used to screen for additional mediators of cholesterol efflux in a cell based assay. For example, cell lines in which cholesterol efflux can be enhanced using a cAMP analog that up-regulates ABCA1 protein expression (e.g., J774 macrophages) can conveniently be used to assess the ability of a polypeptide of the present invention to mediate cholesterol efflux. The cells are incubated with labeled cholesterol (e.g., [^3H]cholesterol) under conditions appropriate for cholesterol uptake by the cells. Thus, cAMP or cAMP analogs (e.g., CPT-cAMP) are incubated with the cells for a suitable time before the initiation of cellular cholesterol efflux, i.e., prior to contacting the cells with a test polypeptide. Measurement of labeled cholesterol appearing in the medium is used to determine the cholesterol efflux mediating activity of the test polypeptide.
J774 mouse macrophages labeled with [^3H]cholesterol were treated (20 h) with 22-hydroxycholesterol (10 μM)/cis-retinoic acid (10 μM) to upregulate cellular ABCA1 protein.
Mouse macrophages were labeled with [^3H]cholesterol and treated with a cAMP analog to induce ABCA1 expression. […] Km values were calculated using the Michaelis-Menton equation and GraphPad Prism4 software.
Inverted sequence peptides synthesized with all L-amino acids and all D-amino acids were tested for cholesterol efflux activity using ABCA1 expressing J774 macrophages.
Two peptide analogs were engineered; the first replacing glutamic acid residues (E) at position 8 and 15 with aspartic acid residues (D), i.e., E8, 15>D polypeptides, and the second, replacing E1, 7, 8, 15, 18, 19 with D, i.e., all D (Asp) polypeptide. Cholesterol efflux activity was determined using J774 macrophages treated with and without a cAMP analog to modulate ABCA1 expression.
The impact of the A12>L substitution was also tested for activity, which also expanded non-polar surface area.
1-palmitoyl-2-oleoyl-phosphatidylcholine (POPC) was used to evaluate the cholesterol efflux properties of a formulated polypeptide of the present invention. […] To test cholesterol efflux activity, J774 mouse macrophages were labeled with [^3H]cholesterol and treated with and without cAMP to modulate ABCA1 expression.

ABCA1, sequence (P41233 whole entry): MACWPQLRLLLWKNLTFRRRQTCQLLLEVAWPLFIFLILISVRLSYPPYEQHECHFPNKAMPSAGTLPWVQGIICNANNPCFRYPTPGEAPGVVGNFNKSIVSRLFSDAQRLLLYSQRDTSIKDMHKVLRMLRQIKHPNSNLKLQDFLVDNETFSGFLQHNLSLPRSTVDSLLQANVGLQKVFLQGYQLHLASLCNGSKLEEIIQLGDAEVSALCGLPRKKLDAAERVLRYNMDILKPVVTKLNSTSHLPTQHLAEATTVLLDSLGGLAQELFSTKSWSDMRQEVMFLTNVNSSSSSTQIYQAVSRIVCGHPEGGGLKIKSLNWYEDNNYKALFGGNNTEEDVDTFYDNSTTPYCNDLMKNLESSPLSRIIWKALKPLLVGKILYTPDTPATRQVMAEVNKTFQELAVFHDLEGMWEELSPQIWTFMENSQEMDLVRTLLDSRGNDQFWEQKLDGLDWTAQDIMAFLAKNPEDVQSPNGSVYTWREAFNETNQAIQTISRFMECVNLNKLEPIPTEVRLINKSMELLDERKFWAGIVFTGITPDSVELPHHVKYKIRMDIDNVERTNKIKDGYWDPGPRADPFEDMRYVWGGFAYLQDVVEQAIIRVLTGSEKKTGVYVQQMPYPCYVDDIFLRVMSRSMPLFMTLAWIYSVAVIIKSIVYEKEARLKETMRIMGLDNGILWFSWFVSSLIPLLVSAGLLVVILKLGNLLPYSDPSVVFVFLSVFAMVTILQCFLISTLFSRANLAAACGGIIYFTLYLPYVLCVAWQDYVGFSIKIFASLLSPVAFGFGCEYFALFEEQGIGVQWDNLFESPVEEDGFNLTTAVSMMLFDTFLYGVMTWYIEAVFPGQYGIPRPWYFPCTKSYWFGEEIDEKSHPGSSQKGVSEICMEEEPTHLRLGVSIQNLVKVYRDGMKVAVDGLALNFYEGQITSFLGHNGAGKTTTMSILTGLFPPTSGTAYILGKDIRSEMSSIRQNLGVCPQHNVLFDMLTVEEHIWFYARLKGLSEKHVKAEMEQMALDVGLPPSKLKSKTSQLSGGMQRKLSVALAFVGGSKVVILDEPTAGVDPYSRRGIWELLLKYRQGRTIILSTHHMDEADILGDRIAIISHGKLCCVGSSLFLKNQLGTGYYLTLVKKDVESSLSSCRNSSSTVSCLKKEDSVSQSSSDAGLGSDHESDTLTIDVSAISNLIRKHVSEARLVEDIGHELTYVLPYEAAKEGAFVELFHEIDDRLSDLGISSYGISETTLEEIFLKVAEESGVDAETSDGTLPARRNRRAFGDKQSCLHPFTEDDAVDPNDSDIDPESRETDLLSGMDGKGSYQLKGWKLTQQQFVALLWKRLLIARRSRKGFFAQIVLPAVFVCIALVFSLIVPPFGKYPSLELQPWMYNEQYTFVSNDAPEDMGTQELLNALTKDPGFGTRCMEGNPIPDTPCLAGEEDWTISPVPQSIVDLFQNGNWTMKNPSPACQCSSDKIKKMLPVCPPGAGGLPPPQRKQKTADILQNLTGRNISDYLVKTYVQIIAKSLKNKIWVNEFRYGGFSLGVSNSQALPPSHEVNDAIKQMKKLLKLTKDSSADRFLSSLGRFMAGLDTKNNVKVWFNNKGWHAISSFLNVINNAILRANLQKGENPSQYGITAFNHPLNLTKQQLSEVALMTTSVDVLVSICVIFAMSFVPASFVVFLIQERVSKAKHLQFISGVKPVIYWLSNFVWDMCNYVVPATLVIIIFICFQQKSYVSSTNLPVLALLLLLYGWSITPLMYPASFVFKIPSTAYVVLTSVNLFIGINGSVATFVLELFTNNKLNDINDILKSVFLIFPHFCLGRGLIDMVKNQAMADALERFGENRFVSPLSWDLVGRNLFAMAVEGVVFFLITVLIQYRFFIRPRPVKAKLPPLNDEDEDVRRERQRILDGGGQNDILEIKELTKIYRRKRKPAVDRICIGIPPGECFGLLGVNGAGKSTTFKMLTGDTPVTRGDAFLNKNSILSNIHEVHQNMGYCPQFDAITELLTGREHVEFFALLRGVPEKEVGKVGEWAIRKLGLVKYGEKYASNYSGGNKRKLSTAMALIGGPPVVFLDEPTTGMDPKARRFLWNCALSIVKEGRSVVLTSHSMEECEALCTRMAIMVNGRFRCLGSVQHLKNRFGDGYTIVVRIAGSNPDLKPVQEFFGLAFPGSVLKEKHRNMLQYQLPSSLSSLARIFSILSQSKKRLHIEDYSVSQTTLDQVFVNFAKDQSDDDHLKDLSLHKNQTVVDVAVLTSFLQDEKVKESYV

| Substance | capacity to stimulate cholesterol efflux at 3 μg/ml | ABCA1-dependent cholesterol efflux | further results |
| --- | --- | --- | --- |
| 18-mer: SEQ ID NO:5 truncated from the C-terminal end to 18 residues (EVRSKLEEWFAAFREFFE; S1 amphipathic alpha-helix polypeptide core sequence selectively binds HDL, high-affinity ligand for ATP- binding cassette transporter A1 (ABCA1), ABCA1-lipid cholesterol efflux, ABCA1-stablization, anti-oxidant and anti-inflammatory activity) | weakly active | – | – |
| 22-mer: SEQ ID NO:5 truncated from the C-terminal end to 22 residues (EVRSKLEEWFAAFREFFEEFLA; S1 amphipathic alpha-helix polypeptide core sequence selectively binds HDL, high-affinity ligand for ATP- binding cassette transporter A1 (ABCA1), ABCA1-lipid cholesterol efflux, ABCA1-stablization, anti-oxidant and anti-inflammatory activity) | weakly active | – | – |
| 23-mer: SEQ ID NO:5 with three residues deleted from the C-terminal end (EVRSKLEEWFAAFREFFEEFLAR; S1 amphipathic alpha-helix polypeptide core sequence selectively binds HDL, high-affinity ligand for ATP- binding cassette transporter A1 (ABCA1), ABCA1-lipid cholesterol efflux, ABCA1-stablization, anti-oxidant and anti-inflammatory activity) | weakly active | – | – |
| 25-mer: SEQ ID NO:5 lacking the C-terminal Ser26 (EVRSKLEEWFAAFREFFEEFLARLK; S1 amphipathic alpha-helix polypeptide core sequence selectively binds HDL, high-affinity ligand for ATP- binding cassette transporter A1 (ABCA1), ABCA1-lipid cholesterol efflux, ABCA1-stablization, anti-oxidant and anti-inflammatory activity) | retained high capacity to stimulate cholesterol efflux; also recorded: retained high activity | – | – |
| A12>L: A12>L substitution analogs of SEQ ID NO:4 (EVRSKLEEWFALFREFAEEFLARLKS; ATI-5261 amphipathic alpha-helix polypeptide core sequence selectively binds HDL, high-affinity ligand for ATP-binding cassette transporter A1 (ABCA1), ABCA1-lipid cholesterol efflux, ABCA1-stablization, anti-oxidant and anti- inflammatory activity) | – | stimulated cholesterol efflux from macrophages in an ABCA1-dependent manner | – |
| E1, 7, 8, 15, 18, 19>D: SEQ ID NO:5 with E1, 7, 8, 15, 18, 19 replaced with D (DVRSKLDDWFAAFRDFFDDFLARLKS; S1 amphipathic alpha-helix polypeptide core sequence selectively binds HDL, high-affinity ligand for ATP- binding cassette transporter A1 (ABCA1), ABCA1-lipid cholesterol efflux, ABCA1-stablization, anti-oxidant and anti-inflammatory activity) | – | retained high capacity to stimulate cholesterol efflux in an ABCA1-dependent manner | – |
| E8, 15>D: SEQ ID NO:5 with glutamic acid at positions 8 and 15 replaced with aspartic acid (EVRSKLEDWFAAFRDFFEEFLARLKS; S1 amphipathic alpha-helix polypeptide core sequence selectively binds HDL, high-affinity ligand for ATP- binding cassette transporter A1 (ABCA1), ABCA1-lipid cholesterol efflux, ABCA1-stablization, anti-oxidant and anti-inflammatory activity) | – | retained high capacity to stimulate cholesterol efflux in an ABCA1-dependent manner | – |
| E8, 15→Q8, 15: SEQ ID NO:5 with two glutamate residues replaced with glutamine (EVRSKLEQWFAAFRQFFEEFLARLKS; S1 amphipathic alpha-helix polypeptide core sequence selectively binds HDL, high-affinity ligand for ATP- binding cassette transporter A1 (ABCA1), ABCA1-lipid cholesterol efflux, ABCA1-stablization, anti-oxidant and anti-inflammatory activity) | – | – | cholesterol efflux from macrophages not induced for ABCA1 (non-specific): further augmented |
| EFRSKLEEWFAAFREFFEEFLARLKS (S2 amphipathic alpha-helix polypeptide core sequence selectively binds HDL, high-affinity ligand for ATP- binding cassette transporter A1 (ABCA1), ABCA1-lipid cholesterol efflux, ABCA1-stablization, anti-oxidant and anti-inflammatory activity) [SEQ ID NO:6] | – | – | cholesterol efflux efficiency/potency on per molecule (molar) basis versus apolipoproteins (Km in molar units): activity similar to full-length Apo A-I, Apo E, and the C-terminal (CT) domain of Apo E |
| EVRSKLEEWFAAFREFAEEFLARLKS ([dE][dV][dR][dS][dK][dL][dE][dE][dW][dF][dA][dA][dF][dR][dE][dF][dA][dE][dE][dF][dL][dA][dR][dL][dK][dS]) | – | promoted ABCA1 cholesterol efflux | ABCA1-dependent cholesterol efflux (listed as D-amino acid analog of SEQ ID NO:4): stimulate ABCA1 cholesterol efflux in a ABCA1-dependent manner |
| EVRSKLEEWFAAFREFFEEFLARL (amphipathic alpha-helix polypeptide core sequence selectively binds HDL, high-affinity ligand for ATP- binding cassette transporter A1 (ABCA1), ABCA1-lipid cholesterol efflux, ABCA1-stablization, anti-oxidant and anti-inflammatory activity) [24-mer] | retained high capacity to stimulate cholesterol efflux; also recorded: retained high activity | stimulated cholesterol efflux in an ABCA1-dependent manner | efficiency of ABCA1 cholesterol efflux (concentration dependence) (concentration dependence curves): high efficience |
| R3, 14, 23→K3, 14, 23: SEQ ID NO:5 with lysine in place of arginine at positions 3, 14 and 23 (EVKSKLEEWFAAFKEFFEEFLAKLKS; S1 amphipathic alpha-helix polypeptide core sequence selectively binds HDL, high-affinity ligand for ATP- binding cassette transporter A1 (ABCA1), ABCA1-lipid cholesterol efflux, ABCA1-stablization, anti-oxidant and anti-inflammatory activity) | – | stimulated ABCA1 cholesterol efflux | cholesterol efflux from macrophages not induced for ABCA1 (non-specific): Low efflux |
